Reference: patent US20160271244A1 (DUKE UNIVERSITY, published 2016)

Tests used:
Jo 1 [1] = test: Athena autoantigen assay, mAb 6.25 ug/ml
Scl 70 [2] = test: Athena autoantigen assay, mAb 6.25 ug/ml
RNP [3] = test: Athena autoantigen assay, mAb 6.25 ug/ml
Cent B [4] = biological target: T1, Cent B; test: Athena autoantigen assay, mAb 6.25 ug/ml
T1 construct: also called centromere B

Sm [5] = test: Athena autoantigen assay, mAb 6.25 ug/ml
SSB [6] = test: Athena autoantigen assay, mAb 6.25 ug/ml
Histone [7] = test: Athena autoantigen assay, mAb 6.25 ug/ml
SSA [8] = test: Athena autoantigen assay, mAb 6.25 ug/ml
CM 243 gp120 = biological target: T2, CM 243 gp120 (HIV-1); test: ELISA on monomeric Env
T2 construct: domain: gp120; also called gp120 CM243

A244gD+ gp120 [9] = biological target: T3, A244gD+ gp120 (herpes simplex virus; HIV-1); test: ELISA on monomeric Env
HV00046 (902114 B2 140C) = biological target: T4, HV00046 (902114 B2 140C) (HIV-1); test: ELISA on monomeric Env
T4 construct: domain: gp140

[10] = biological target: Env (gp120) of HIV-1 7165.18.N160K (HIV-1); test: cell-based or functional assay
[11] = biological target: Env (gp120) of HIV-1 Q23.17.N160K (HIV-1); test: cell-based or functional assay
[12] = biological target: Env (gp120) of HIV-1 isolate Q23.17 (HIV-1); test: cell-based or functional assay
[13] = biological target: Env (gp120) of HIV-1 JRFL.E168K (HIV-1); test: cell-based or functional assay
[14] = biological target: Env (gp120) of HIV-1 isolate JRFL (virus) (HIV-1); test: cell-based or functional assay
[15] = biological target: Env (gp120) of HIV-1 JRFL.N160K.E168K (HIV-1); test: cell-based or functional assay
[16] = biological target: Env (gp120) of HIV-1 isolate JRCSF (HIV-1, UniProt P20871 32-848); test: cell-based or functional assay
[17] = biological target: Env (gp120) of HIV-1 isolate 7165.18 (HIV-1); test: cell-based or functional assay
MN gp120 = biological target: T5, MN gp120 (HIV-1, UniProt P05877 32-513); test: ELISA
T5 construct: domain: gp120

Jo 1 [18] = test: Athena autoantigen assay, mAb 25 ug/ml
Scl 70 [19] = test: Athena autoantigen assay, mAb 25 ug/ml
RNP [20] = test: Athena autoantigen assay, mAb 25 ug/ml
Cent B [21] = biological target: T1, Cent B; test: Athena autoantigen assay, mAb 25 ug/ml
Sm [22] = test: Athena autoantigen assay, mAb 25 ug/ml
SSB [23] = test: Athena autoantigen assay, mAb 25 ug/ml
Histone [24] = test: Athena autoantigen assay, mAb 25 ug/ml
SSA [25] = test: Athena autoantigen assay, mAb 25 ug/ml
Jo 1 [26] = test: Athena autoantigen assay, mAb 12.5 ug/ml
Scl 70 [27] = test: Athena autoantigen assay, mAb 12.5 ug/ml
RNP [28] = test: Athena autoantigen assay, mAb 12.5 ug/ml
Cent B [29] = biological target: T1, Cent B; test: Athena autoantigen assay, mAb 12.5 ug/ml
Sm [30] = test: Athena autoantigen assay, mAb 12.5 ug/ml
SSB [31] = test: Athena autoantigen assay, mAb 12.5 ug/ml
Histone [32] = test: Athena autoantigen assay, mAb 12.5 ug/ml
SSA [33] = test: Athena autoantigen assay, mAb 12.5 ug/ml
HV00044 (6240 TZ5 140C) = biological target: T6, HV00044 (6240 TZ5 140C) (HIV-1); test: SPR
T6 construct: domain: gp140; also called 624008 TA5 gp140; 6240 transmitted founder Env

A244gD+ gp120 [34] = biological target: T3, A244gD+ gp120; test: SPR
A244gD- gp120 = biological target: T7, A244gD- gp120 (HIV-1); test: SPR
T7 construct: domain: gp120

Chain of Jo 1 (P12081 2-509): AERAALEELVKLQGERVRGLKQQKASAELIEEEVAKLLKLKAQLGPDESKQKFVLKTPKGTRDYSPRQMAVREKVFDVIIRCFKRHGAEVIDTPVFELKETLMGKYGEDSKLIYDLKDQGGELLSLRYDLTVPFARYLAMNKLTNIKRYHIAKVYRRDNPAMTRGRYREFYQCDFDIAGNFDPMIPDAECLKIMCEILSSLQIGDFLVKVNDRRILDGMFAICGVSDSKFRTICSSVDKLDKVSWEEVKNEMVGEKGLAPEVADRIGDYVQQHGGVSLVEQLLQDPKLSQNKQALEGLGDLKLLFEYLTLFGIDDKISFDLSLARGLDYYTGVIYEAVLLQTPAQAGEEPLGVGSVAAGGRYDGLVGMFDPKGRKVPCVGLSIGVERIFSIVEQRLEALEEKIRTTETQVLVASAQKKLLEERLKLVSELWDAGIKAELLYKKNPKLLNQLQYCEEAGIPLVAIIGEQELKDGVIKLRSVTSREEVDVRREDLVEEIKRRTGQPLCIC
T1 sequence (P07199 2-599): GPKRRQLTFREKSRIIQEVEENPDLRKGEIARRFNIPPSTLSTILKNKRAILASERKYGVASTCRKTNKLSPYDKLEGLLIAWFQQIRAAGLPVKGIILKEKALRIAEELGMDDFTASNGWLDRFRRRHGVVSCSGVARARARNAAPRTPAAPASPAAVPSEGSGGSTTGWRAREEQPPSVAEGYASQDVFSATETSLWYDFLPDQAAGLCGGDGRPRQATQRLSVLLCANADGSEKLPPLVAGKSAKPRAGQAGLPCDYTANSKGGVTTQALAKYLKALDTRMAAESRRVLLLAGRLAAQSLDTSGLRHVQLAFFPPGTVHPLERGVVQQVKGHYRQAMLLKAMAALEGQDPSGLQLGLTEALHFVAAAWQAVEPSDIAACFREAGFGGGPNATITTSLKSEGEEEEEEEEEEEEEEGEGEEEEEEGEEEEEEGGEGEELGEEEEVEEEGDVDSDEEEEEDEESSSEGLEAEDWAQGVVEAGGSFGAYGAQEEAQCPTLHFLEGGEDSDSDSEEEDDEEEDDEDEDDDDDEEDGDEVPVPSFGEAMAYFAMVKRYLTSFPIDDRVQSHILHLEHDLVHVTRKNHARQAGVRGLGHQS
Chain of SSB (P05455 whole entry): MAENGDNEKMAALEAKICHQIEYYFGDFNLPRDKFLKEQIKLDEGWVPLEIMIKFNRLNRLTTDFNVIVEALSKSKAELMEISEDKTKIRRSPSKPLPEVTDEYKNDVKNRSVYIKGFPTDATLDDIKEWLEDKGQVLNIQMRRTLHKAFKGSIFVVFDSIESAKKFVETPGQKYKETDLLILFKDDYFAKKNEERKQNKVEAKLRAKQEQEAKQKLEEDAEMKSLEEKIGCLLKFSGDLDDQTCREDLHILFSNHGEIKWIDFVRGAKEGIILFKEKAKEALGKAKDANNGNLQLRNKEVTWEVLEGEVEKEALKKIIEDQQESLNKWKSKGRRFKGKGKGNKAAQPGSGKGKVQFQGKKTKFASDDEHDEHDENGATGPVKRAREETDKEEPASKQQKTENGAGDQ

B1: CH01 (antibody, V domains shown)
VH: EVQLVESGANVVRPGGSLRLSCKASGFIFENFGFSWVRQAPGKGLQWVAGLNWNGGDTRYADSVKGRFRMSRDNSRNFVYLDMDKVGVDDTAFYYCARGTDYTIDDAGIHYQGSGTFWYFDLWGRGTLVSVSS
VL: EIVLTQSPGTLSLSPGERATLSCRASHNVHPKYFAWYQQKPGQSPRLLIYGGSTRAAGIPGKFSGSGSGTDFTLTISRVDPEDFAVYYCQQYGGSPYTFGQGTKVEI
notes: also called 1-27-G2; 27G2
- Athena autoreactivity score (Jo 1 [1]): 2
- Athena autoreactivity score (Scl 70 [2]): 1.5
- Athena autoreactivity score (RNP [3]): 4
- Athena autoreactivity score (Cent B [4]): 7
- Athena autoreactivity score (Sm [5]): 2.5
- Athena autoreactivity score (SSB [6]): 5.5
- Athena autoreactivity score (Histone [7]): 10
- Athena autoreactivity score (SSA [8]): 5.5
- EC50 (CM 243 gp120): 12.7 µM
- EC50 (A244gD+ gp120 [9]): 7.8 µM
- EC50 (HV00046 (902114 B2 140C)): 63.2 µM
- IC50 (virus neutralization) [10]: > 50 µg/mL
- IC80 (virus neutralization) [10]: > 50 µg/mL
- IC50 (virus neutralization) [11]: > 50 µg/mL
- IC80 (virus neutralization) [11]: > 50 µg/mL
- IC50 (virus neutralization) [12]: 0.014 µg/mL
- IC80 (virus neutralization) [12]: 0.035 µg/mL
- IC50 (virus neutralization) [13]: 0.044 µg/mL
- IC80 (virus neutralization) [13]: 0.382 µg/mL
- IC50 (virus neutralization) [14]: > 50 µg/mL
- IC80 (virus neutralization) [14]: > 50 µg/mL
- IC50 (virus neutralization) [15]: > 50 µg/mL
- IC80 (virus neutralization) [15]: > 50 µg/mL
- IC50 (virus neutralization) [16]: 0.07 µg/mL
- IC80 (virus neutralization) [16]: > 50 µg/mL
- IC50 (virus neutralization) [17]: 5.82 µg/mL
- IC80 (virus neutralization) [17]: > 50 µg/mL
- binding result (MN gp120): no binding
- Athena autoreactivity score (Jo 1 [18]): 2.5
- Athena autoreactivity score (Scl 70 [19]): 3
- Athena autoreactivity score (RNP [20]): 5.5
- Athena autoreactivity score (Cent B [21]): 14
- Athena autoreactivity score (Sm [22]): 4
- Athena autoreactivity score (SSB [23]): 5.5
- Athena autoreactivity score (Histone [24]): 17.5
- Athena autoreactivity score (SSA [25]): 6.5
- Athena autoreactivity score (Jo 1 [26]): 2
- Athena autoreactivity score (Scl 70 [27]): 2
- Athena autoreactivity score (RNP [28]): 4.5
- Athena autoreactivity score (Cent B [29]): 10
- Athena autoreactivity score (Sm [30]): 3
- Athena autoreactivity score (SSB [31]): 5
- Athena autoreactivity score (Histone [32]): 13.5
- Athena autoreactivity score (SSA [33]): 5
- Kd (HV00044 (6240 TZ5 140C)): 0.3 µM
- Kd (A244gD+ gp120 [34]): 0.0088 µM
- Kd (A244gD- gp120): 0.34 µM
